Substrate in data set [1]: CC(=O)CC(=O)SCCNC(=O)CCNC(=O)[C@H](O)C(C)(C)COP(=O)(O)OP(=O)(O)OC[C@H]1O[C@@H](n2cnc3c(N)ncnc32)[C@H](O)[C@@H]1OP(=O)(O)O
The data set can be described thus: thiolysis, decrease in A303 of Mg-keto-acyl-CoA complex, Michaelis-Menten fit. Type of data set: biochemical, Cupriavidus necator. The conditions noted are these: C4 thiolysis, 200 μM CoASH, 10 mM MgCl2, 100 mM Tris pH 7.0.

Substrate in data set [2]: CCCC(=O)CC(=O)SCCNC(=O)CCNC(=O)[C@H](O)C(C)(C)COP(=O)(O)OP(=O)(O)OC[C@H]1O[C@@H](n2cnc3c(N)ncnc32)[C@H](O)[C@@H]1OP(=O)(O)O
Described as above. In kind it is biochemical, Cupriavidus necator. The note with it: C6 thiolysis, 200 μM CoASH, 10 mM MgCl2, 100 mM Tris pH 7.0.

As a reminder, the Km is the substrate concentration at which the rate is half of its maximum. The kcat is the maximal rate divided by the concentration of active sites. For orientation: kcat/Km means the second-order rate constant that governs catalysis at low substrate concentration.

B1: BktB (Cupriavidus necator H16; M158A) (protein)
chain: MTREVVVVSGVRTAIGTFGGSLKDVAPAELGALVVREALARAQVSGDDVGHVVFGNVIQTEPRDMYLGRVAAVNGGVTINAPALTVNRLCGSGLQAIVSAAQTILLGDTDVAIGGGAESMSRAPYLAPAARWGARMGDAGLVDMMLGALHDPFHRIHAGVTAENVAKEYDISRAQQDEAALESHRRASAAIKAGYFKDQIVPVVSKGRKGDVTFDTDEHVRHDATIDDMTKLRPVFVKENGTVTAGNASGLNDAAAAVVMMERAEAERRGLKPLARLVSYGHAGVDPKAMGIGPVPATKIALERAGLQVSDLDVIEANEAFAAQACAVTKALGLDPAKVNPNGSGISLGHPIGATGALITVKALHELNRVQGRYALVTMCIGGGQGIAAIFERI
Take B1: in data set [1], the Km was determined as 14.1 µM, the kcat was 4.63 s⁻¹ and the kcat/Km stood at 328000 M⁻¹ s⁻¹. For the same protein, in data set [2], the Michaelis-Menten constant (Km) was found to be 17 µM, the turnover number (kcat) turned out to be 16.7 s⁻¹ and the catalytic efficiency (kcat/Km) came out at 982000 M⁻¹ s⁻¹.

B2: BktB (Cupriavidus necator H16) (protein)
chain: MTREVVVVSGVRTAIGTFGGSLKDVAPAELGALVVREALARAQVSGDDVGHVVFGNVIQTEPRDMYLGRVAAVNGGVTINAPALTVNRLCGSGLQAIVSAAQTILLGDTDVAIGGGAESMSRAPYLAPAARWGARMGDAGLVDMMLGALHDPFHRIHMGVTAENVAKEYDISRAQQDEAALESHRRASAAIKAGYFKDQIVPVVSKGRKGDVTFDTDEHVRHDATIDDMTKLRPVFVKENGTVTAGNASGLNDAAAAVVMMERAEAERRGLKPLARLVSYGHAGVDPKAMGIGPVPATKIALERAGLQVSDLDVIEANEAFAAQACAVTKALGLDPAKVNPNGSGISLGHPIGATGALITVKALHELNRVQGRYALVTMCIGGGQGIAAIFERI
As for B2, in data set [1], the Michaelis-Menten constant (Km) was determined as 17.5 µM, the kcat came out at 148 s⁻¹ and the kcat/Km is 8.45e+06 M⁻¹ s⁻¹. In data set [2], the Michaelis constant (Km) is 15.2 µM, the kcat amounted to 4.06 s⁻¹ and the kcat/Km came to 267000 M⁻¹ s⁻¹.

(Values after article PMC6131064.)
